For 1 substance, pKapp (negative logarithm of the apparent dissociation constant) results are on record in PMC9770967, “Native holdup (nHU) to measure binding affinities from cell extracts” (Science Advances, 2022).

For this experiment, the target named is biotinylated PDZ-binding motif (PBM) peptide of diacylglycerol kinase zeta (DGKZ). Briefly: native holdup (nHU) with Western blot; titration; biotinylated DGKZ PBM peptide on streptavidin resin as bait, mixed with biotin-saturated control resin at constant resin/analyte ratio; total Jurkat extract (2 mg/ml) as analyte; 4°C, 2 hours; prey depletion in the supernatant read by Western blot; apparent constants; three replicates.

Regarding “endogenous full-length Scribble (SCRIB) (from UniProt Q14160 1-1655) (natural protein)”, the pKapp (negative logarithm of the apparent dissociation constant) came out at 6.4 pKapp.
